{"source": "patent US20130059292A1", "about": "(APTAMER SCIENCES, published 2013)", "binders": {"B1": {"name": "PDK1 (enzyme, human, UniProt O15530 1-556, looked up)", "chain": "MARTTSQLYDAVPIQSSVVLCSCPSPSMVRTQTESSTPPGIPGGSRQGPAMDGTAAEPRPGAGSLQHAQPPPQPRKKRPEDFKFGKILGEGSFSTVVLARELATSREYAIKILEKRHIIKENKVPYVTRERDVMSRLDHPFFVKLYFTFQDDEKLYFGLSYAKNGELLKYIRKIGSFDETCTRFYTAEIVSALEYLHGKGIIHRDLKPENILLNEDMHIQITDFGTAKVLSPESKQARANSFVGTAQYVSPELLTEKSACKSSDLWALGCIIYQLVAGLPPFRAGNEYLIFQKIIKLEYDFPEKFFPKARDLVEKLLVLDATKRLGCEEMEGYGPLKAHPFFESVTWENLHQQTPPKLTAYLPAMSEDDEDCYGNYDNLLSQFGCMQVSSSSSSHSLSASDTGLPQRSGSNIEQYIHDLDSNSFELDLQFSEDEKRLLLEKQAGGNPWHQFVENNLILKMGPVDKRKGLFARRRQLLLTEGPHLYYVDPVNKVLKGEIPWSQELRPEAKNFKTFFVHTPNRTYYLMDPSGNAHKWCRKIQEVWRQRYQSHPDAAVQ", "notes": "also called phosphoinositide dependent kinase 1; PDPK1"}}, "molecular_target": "T1, epidermal growth factor receptor (EGFR) (human, UniProt P00533 25-1210)", "T1 construct": "Endogenous protein in A431 cell lysate; also called EGF receptor", "experiment": "Co-AP with EGFR aptamer-magnetic agarose beads from EGF-stimulated A431 cell lysate, Western blot", "experimental": "In order to study additional DxSO₄ effects in Co-AP assays, Co-AP experiments were performed with various DxSO₄ concentrations in a binding buffer. […] The mixed solution was washed four times with a lysis buffer. The bound complex was eluted by 20 mM EDTA in 40 mM HEPES containing 0.1M NaCl."}
{"binder": "B1", "values": [{"measurement": "binding result", "value": "binds"}]}
